Among the data in PMC3531806 are half-life (t1/2) of the dissociation of trimers to monomers and stoichiometry N values, retold here.

In the assay the target is T1, H1N1 WSN NP protein (nucleoprotein of influenza A/WSN/1933), wild type (influenza A virus A/WSN/1933 (H1N1)), P15682.
T1 chain: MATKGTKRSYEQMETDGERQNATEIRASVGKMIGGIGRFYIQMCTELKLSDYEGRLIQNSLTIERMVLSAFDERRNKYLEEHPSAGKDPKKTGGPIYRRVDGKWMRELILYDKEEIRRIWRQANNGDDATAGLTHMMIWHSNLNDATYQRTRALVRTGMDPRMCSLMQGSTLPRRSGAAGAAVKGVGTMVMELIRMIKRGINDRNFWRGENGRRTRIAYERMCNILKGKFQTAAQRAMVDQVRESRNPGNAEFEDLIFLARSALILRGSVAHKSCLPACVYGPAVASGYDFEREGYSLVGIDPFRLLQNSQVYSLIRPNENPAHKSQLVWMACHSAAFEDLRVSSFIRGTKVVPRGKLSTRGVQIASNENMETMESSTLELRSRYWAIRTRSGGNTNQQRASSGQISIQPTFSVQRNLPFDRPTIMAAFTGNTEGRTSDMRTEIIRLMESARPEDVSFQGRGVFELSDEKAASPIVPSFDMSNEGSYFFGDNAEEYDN
Briefly: SEC. The following applies: remark: other sources report otherwise.

B1: H1N1 WSN NP protein (nucleoprotein of influenza A/WSN/1933), wild type, P15682 1-498 (natural protein)
chain: T1 chain
By stoichiometry N is commonly meant the number of molecules, sites or subunits per partner or assembly. In turn, B1 came in with a half-life (t1/2) of the dissociation of trimers to monomers of 10 h and a stoichiometry N of 3.
